The results in this text go back to patent US20130039850A1.

The target in assay [1] is recombinant soluble human CD4 (human) (UniProt P01730). The experiment in a line: BIAcore; rCD4 coupled to chip, mAb flowed (avidity). In general terms: SPR reads the build-up and loss of mass on a sensor chip optically.
Assay [2] has the same target. In words: SPR sensor chip; sCD4 amine-coupled, antibody flowed over.

By koff is commonly meant the rate constant with which the complex falls apart. Broadly, the kon is a measure of how fast the partners come together.

Regarding “mouse anti-human CD4 monoclonal antibody Leu3a (Becton Dickinson)”, in assay [1], the Ka stood at 3.7e+10 M⁻¹, the off-rate constant (koff) is 4.2e-06 s⁻¹ and the association rate constant (kon) came out at 150000 M⁻¹ s⁻¹. In addition, in assay [2], the Ka came to 3.7e+10 M⁻¹, the koff was 4.2e-05 s⁻¹ and the kon is 150000 M⁻¹ s⁻¹.
